The values that follow come from patent US20260132218A1 (A AND G PHARMACEUTICAL, published 2026).

Positions count from the first letter of the chain named.

The target of assay [1] is HER2 on SKBR3 cells (human, UniProt P04626 23-1255). Kind of assay: cell-based or functional assay.
The target of assay [2] is T1, human recombinant His-tagged HER2 extracellular domain (human, UniProt P04626 23-652).
T1 construct: extracellular domain; also called HER2-ECD; HER-ECD
Kind of assay: competition EIA on coated HER2, competitor trastuzumab-biotin; given as ED50. How it is done: (§1) Method: 96 well high binding EIA plates were coated with 10 ng of HER2 protein overnight at 4 C. […] After washing, colorimetric substrate 3,3′,5,5′-tetramethylbenzidine (TMB) was added and absorbance at 620 nm was determined after 10 minutes.

Assay [3] addresses T1, human recombinant His-tagged HER2 …. In words: blocking ELISA (competition EIA): HER2 protein coated on the plate, pre-incubated with the antibody, then competitor anti-HER2 TRAST-biotin, streptavidin-HRP; signal as % of h.IgG. How it is done: as §1
(In general: In an ELISA, binding on a coated surface is turned into a signal by an enzyme label.)

B1: 2A2 (antibody, IgG2a, V domains shown)
VH: EVQLVESGGGLVQPGRSLRLSCAASGFTFDDYAMHWVRQAPGKGLEWVSGISWNGGTLGYADSVKGRFTISRDNAKNSLYLQMNSLRAEDTALYYCAKDTGSYSHWYFDLWGRGTLVTVSS
VL: EIVMTQSPATLSVSPGERATLSCRASQSVRSNLAWYQQKPGQAPRLLIYGASTRATGIPARFSGSGSGTEFTLTISSLHSEDFAVYYCQQYNNWPTFGQGTKVEIK
notes: also called AGRD017-2A2; fully human 2A2 antibody
A word on the IC50: it is the midpoint of a concentration-inhibition curve. For the molecule B1, the “Migration assay, at 50 ug/ml (inhibition of migration of SKBR3 cells)” value in assay [1] was found to be 38%. Further, the IC50 in assay [2] came out at 0.09 µg/mL.

B2: 11D7 (antibody, V domains shown)
VH: B1 VH with S52A, T57I
VL: B1 VL with H79Q, Y87C
notes: Hybridoma antibody from TC-mAb mice; also called AGRD017-11D7; fully human 11D7 antibody
As for B2, the “Migration assay, at 50 ug/ml (inhibition of migration of SKBR3 cells)” value in assay [1] turned out to be 32%. In addition, the IC50 in assay [2] was determined as 0.06 µg/mL.

B3: 2D7 (antibody, IgG1, V domains shown)
VH: B1 VH with G55S, L58M, D62G
VL: not shown
notes: also called AGRD017-2D7; fully human 2D7 antibody
Consider B3, for which, in assay [1], the “Killing assay at 0.3 ug/ml Ab (2 nM), DM1 (6 nM), 72 hr” value was found to be 50% and the “Migration assay, at 50 ug/ml (inhibition of migration of SKBR3 cells)” value came to 59%. In addition, the “IC50 (read off the curve)” value in assay [3] was about 0.1 µg/mL.

B4: 8C1 (antibody, IgG2a, V domains shown)
VH: B1 VH with A23T
VL: B1 VL
notes: also called AGRD017-8C1; fully human 8C1 antibody
For the molecule B4, in assay [1], the “Migration assay, at 50 ug/ml (inhibition of migration of SKBR3 cells)” value was determined as 32%. In addition, the IC50 in assay [2] was 0.1 µg/mL.

B5: 12E3 (antibody, IgG1, V domains shown)
VH: B1 VH with E6G, D62G
VL: B1 VL with F62C, H79Q
notes: also called AGRD017-12E3; fully human 12E3 antibody
Regarding B5, in assay [1], the “Internalization: Fluorescent Units” value was 9000 Fluorescent Units and the “Migration assay, at 50 ug/ml (inhibition of migration of SKBR3 cells)” value stood at 45%. The IC50 in assay [2] came out at 0.04 µg/mL.

B6: 3G7 (antibody, IgG1, V domains shown)
VH: B1 VH with I51V, L58M, D62G
VL: B1 VL with A60G, T72I, H79Q
notes: also called AGRD017-3G7; fully human 3G7 antibody
B6: the “Migration assay, at 50 ug/ml (inhibition of migration of SKBR3 cells)” value in assay [1] is 24%. The IC50 in assay [2] was determined as 0.06 µg/mL.
